Measurements taken from PMC7225089, “A long lost key opens an ancient lock: Drosophila Myb causes a synthetic multivulval phenotype in nematodes” (Biology Open, 2020).

How the values were obtained:
[1] = target: Drosophila LIN9-LIN52 heterodimeric Myb-binding domain complex (D. melanogaster); test: ITC; Myb fragment (~500 μM) in the syringe injected into LIN9-LIN52 heterodimer (~25–50 μM) at 25°C; 20 mM Tris, 150 mM NaCl, 1 mM beta mercaptoethanol, pH 8.0; MicroCal VP-ITC; triplicate
[2] = target: T1, C. elegans LIN9-LIN52 heterodimeric Myb-binding domain complex (C. elegans, UniProt P30630 442-559; Q10120 75-139); test: as above; details: both partners purified
T1 construct: also called nematode LIN9-LIN52; ceLIN9; source: E. coli, co-expressed, purified (glutathione-sepharose, anion exchange, TEV cleavage, Superdex 200); not shown: GST, N-terminal, cleaved
T1 sequence (looked up) 1: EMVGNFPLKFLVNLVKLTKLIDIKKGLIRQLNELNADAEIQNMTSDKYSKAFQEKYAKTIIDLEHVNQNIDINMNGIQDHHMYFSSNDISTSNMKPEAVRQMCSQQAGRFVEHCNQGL
T1 sequence (looked up) 2: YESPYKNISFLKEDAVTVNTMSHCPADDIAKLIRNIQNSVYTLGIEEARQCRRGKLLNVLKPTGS

B1: Drosophila melanogaster Myb MuvB-binding domain (residues 602-632), wild type (domain or fragment, D. melanogaster, UniProt P04197 602-632, looked up)
chain: VIDPKWARVACGKSRDQMFMEEQAYACLKNL
notes: Expressed from the pGEX vector and 'purified as described for the LIN9-LIN52 complex'; also called Drosophila Myb; dmMyb; source: E. coli, purified (glutathione-sepharose, anion exchange, TEV cleavage, Superdex 200); not shown: GST, N-terminal, cleaved
B1 gave a Kd [1] of 3 µM and a Kd [2] of 7 µM.

B2: Drosophila melanogaster Myb MuvB-binding domain (residues 602-632), K606A/W607A double-substitution mutant (domain or fragment, D. melanogaster, UniProt P04197 602-632, looked up)
chain: VIDPAAARVACGKSRDQMFMEEQAYACLKNL
notes: Expressed from the pGEX vector and 'purified as described for the LIN9-LIN52 complex'; also called KW; source: E. coli, purified (glutathione-sepharose, anion exchange, TEV cleavage, Superdex 200); not shown: GST, N-terminal, cleaved
Work on B2 yielded a Kd [1] of 41 µM and a Kd [2] of 70 µM.
